Measurements from patent US20090004211A1, “METHOD FOR EFFECTING LOCALIZED, NON-SYSTEMIC AND SYSTEMIC, IMMUNOGENIC TREATMENT OF CANCER USING ERP57 TRANSLOCATION” (priority 2006, published 2009).
Entries after “also recorded” stand apart in the source; their conditions may differ.

How the values were obtained:
[1] = system: CT26 cells
[2] = system: CRT; experiment: Fluorescence detection of cell surface CRT (cytofluorometry); settings: for time after treatment at which CRT exposure is detectable: intact cells; for reversal of siRNA-induced defect at the level of CRT expression: CRT-specific or ERP57 specific siRNA, recombinant protein added
Experimental: CT26 cells (on a glass slide or in 12-well plates) were first washed with FACS buffer (1×PBS, 5% fetus bovine serum, and 0.1% sodium azide) and then incubated with rabbit anti-mouse CRT antibody (1:100, Stressgen), or rabbit anti-mouse ERP57 antibody (abcam) in FACS buffer at 4° C. for 30 min. […] After washing three times with FACS buffer, surface CRT and ERP57 was detected by cytofluorometric analysis on a FACS Vantage. In some experiments, cells were fixed with 4% paraformaldehyde, counterstained with Hoechst (2 μM; Sigma), followed by fluorescence microscopic assessment.
Trypsinized CT26 cells were enucleated as described. Briefly, cells were treated in 2 ml of complete RPMI medium containing cytochalasin B (10 μg/ml; Sigma) and DNase I (80 U/ml; Sigma). […] Gradients containing cell suspensions were centrifugated in a prewarmed SW41 Beckman rotor at 25 000 rpm for 20 minutes at 30° C. […] Then the cell surface CRT was detected (see materials and methods) and the viability was determined by with propidium iodine staining (2 μg/ml, Sigma) for 5 min followed by cytofluorometric analysis.

[3] = system: ERP57; experiment: Fluorescence detection of cell surface ERP57 (cytofluorometry); format: cell-based, mouse
Experimental: CT26 cells (on a glass slide or in 12-well plates) were first washed with FACS buffer (1×PBS, 5% fetus bovine serum, and 0.1% sodium azide) and then incubated with rabbit anti-mouse CRT antibody (1:100, Stressgen), or rabbit anti-mouse ERP57 antibody (abcam) in FACS buffer at 4° C. for 30 min. Cells reacted with anti-rabbit IgG (H+L) Alexa fluor 488-conjugates (1:500) in FACS buffer at 4° C. for 30 min. After washing three times with FACS buffer, surface CRT and ERP57 was detected by cytofluorometric analysis on a FACS Vantage. In some experiments, cells were fixed with 4% paraformaldehyde, counterstained with Hoechst (2 μM; Sigma), followed by fluorescence microscopic assessment.

[4] = system: CT26 tumor cells; experiment: Anti-tumor vaccination: treated dying CT26 cells injected s.c., challenge with live tumor cells in opposite flank; format: in vivo, BALB/c mice; settings: for restoration of immunogenicity defect by recombinant protein, anti-tumor vaccination: siRNA-transfected, mitoxantrone-treated CT26 cells
[5] = system: ERP57; experiment: Fluorescence detection of cell surface ERP57 (cytofluorometry); format: cell-based, mouse; settings: murine MCA205, B16F10, J558; human HeLa, A549, HCT116
[6] = system: CT26 tumors; experiment: Treatment of established CT26 tumors by single intratumoral injection; format: in vivo, BALB/c mice; settings: for therapeutic effect of single intratumoral injection: agent alone
Experimental: (§1) All animals were maintained in specific pathogen-free conditions and all experiments followed the FELASA guidelines. 3×10^6 treated CT26 cells were inoculated s.c. in […] of PBS into BALB/c six-week-old female mice, into the lower flank, while 5×10^5 untreated control cells were inoculated into the contralateral flank. For the tumorigenicity assay, 3×10^6 treated or untreated CT26 cells were injected s.c. into nu/nu mice. To assess the specificity of the immune response against CT26, injections of either 5×10^5 or 5×10^6 of CT26 were made (for the mice immunized in a standard protocol or vaccination protocol, respectively). Tumors were evaluated weekly, using a caliper. In a series of experiments, BALB/c (wild type or nu/nu) carrying palpable CT26 tumors (implanted 14 days before for wild type or 7 days before for nu/nu mice by injection of […] tumor cells) received a single intratumoral injection of […] PBS containing the same concentration of anti-cancer agents and PP1/GADD34 inhibitors as those used in vitro, as well as rCRT ([…]). For the assessment of local immune response, 3×10^5 cells were injected in 50 μl into the footpad of mice. Five days later, mice were sacrificed and the draining lymph nodes were harvested. 1×10^5 lymph node cells were cultured for 4 days alone or with 1×10^4 CT26 cells killed by a freeze-thaw cycle in 200 μl in round-bottom 96-well plates. IFN-γ was determined by ELISA.

[7] = system: CT26 cells; experiment: Phagocytosis assay: uptake of treated tumor cells by dendritic cells; format: cell-based, mouse; settings: for reversal of siRNA-induced defect at the level of phagocytosis by DC: CRT-specific or ERP57 specific siRNA, recombinant protein added
Experimental: BM cells were flushed from the tibias and femurs of BALB/c mice with culture medium composed of RPMA 1640 medium supplemented with 10% heat-inactivated FBS, sodium pyruvate, […] 2-ME. 10 mM HEPES (pH 7.4), and penicillin/streptomycin. After one centrifugation, BM cells were resuspended in Tris-ammonium chloride for 2 min to lyse RBC. After one more centrifugation, BM cells (1×10^6 cells/ml) were cultured in medium supplemented with 100 ng/ml recombinant mouse FLT3 ligand in 6-well plates. […] In 12-well plates, […] adherent CT26 cells were labeled with Celltracker Orange and then incubated with drugs. […] Alternatively CT26 cells were coated with 3 μg/10^6 cells of rCRT on ice for 30 minutes and washed twice prior to addition to dendritic cells. Cells were then harvested, washed three times with medium supplemented with FBS and cocultured with immature DC for 2 hours at a ratio of 1:1 and 1:5. At the end of the incubation, cells were harvested with Versene, pooled with non-adherent cells present in the supernatant, washed and stained with CD11c-FITC antibody. Phagocytosis was assessed by FACS analysis of double positive cells. Phagocytic indexes refer to the ratio between values obtained at […] of co-incubation between DC and tumor cells. Trypsinized CT26 cells were enucleated as described. Briefly, cells were treated in 2 ml of complete RPMI medium containing cytochalasin B (10 μg/ml; Sigma) and DNase I (80 U/ml; Sigma). Cell suspension was adjusted to a final concentration of 5×10^6/ml and incubated at 37° C. for 45 minutes before being layered onto a previously prepared discontinuous Ficoll density gradient (3 ml of 100%, in 1 ml of 90% and 3 ml of 55% Ficoll Paque layer containing 5 μg/ml cytochalasin B and 40 U/ml DNase I; gradients were prepared in ultracentrifuge tubes and pre-equilibrated at 37° C. in a CO2 incubator overnight). Gradients containing cell suspensions were centrifugated in a prewarmed SW41 Beckman rotor at 25 000 rpm for 20 minutes at 30° C. The cytoplasts-enriched fraction was collected from the interface between 90 and 100% Ficoll layers, washed in complete RPMI 1640 medium, and incubated at 37° C. The cells were incubated with mitoxantrone (MTX), calyculin (CA), salubrinal (Sal) and toutomycin (TA) for the period of time indicated in the experiment. […] Alternatively cythoplasts were cocultured with immature DC for 2 hours at a ratio of 1:1 and 1:5. At the end of the incubation, cells were harvested with versene, pooled with non-adherent cells present in the supernatant, washed and stained with CD11c-FITC antibody. Phagocytosis was assessed by FACS analysis of double positive cells.

[8] = system: sperm-egg fusion; experiment: Sperm-egg fusion assay; format: cell-based, ICR mice
Experimental: Gamete Isolation. Using mature, cumulus-free oocytes from superovulated 6-week-old to 8-week-old ICR female mice, eggs were denuded from the zona pellucida and loaded with DAPI. Sperms were collected from each cauda epididymis and vas deferens of 10- to 12-week-old ICR males. […] […] All the experiments were performed according to the animal care and use protocols approved by French and European Union Ethical Committee.
Sperm-Egg Fusion Assay. […] After the incubation, the sperms or eggs were washed. Sperms were added at a final concentration of 1-3×10^5 sperm/ml and coincubated with gamete for 40 min at 37° C. and 5% CO2. The oocytes were then washed to release loosely bound sperms and mounted onto microscope slides. Alternatively, non-capacitated sperms were incubated with recombinant CRT or ERP57, 3 μg/10^5 sperm, for 30 min 37° C. and 5% CO2, followed by three washes with PBS. Sperm-egg fusion scored by the fluorescent labeling of sperm nuclei by DAPI transferred from preloaded eggs. Fertilization rote (FR) is the percentage of oocytes with at least one fused sperm, and Fertilization index (FI) is the mean number of fused sperm per egg. Both the FR and FI are expressed of the control treatment.

[9] = system: CT26 tumor cells; experiment: Local immune response: tumor cells injected into footpad, IFN-γ secretion by draining lymph node cells (ELISA); format: in vivo, Balb/c mice; settings: for restoration of immunogenicity defect by recombinant protein, interferon-γ production: siRNA-transfected, mitoxantrone-treated CT26 cells
Experimental: as §1

[10] = system: DC; experiment: DC maturation ex vivo; format: cell-based; settings: protein alone, large range of concentrations
[11] = immunocompetent BALB/c mice, 14-day-old CT26 tumors

Molecule: peptide inhibitor: protein transduction domain-5 (RRQRRTSKLMKR) fused to the inhibitory sequence of the complex PP1/GADD34 (LKARKVRFSEKV) (RRQRRTSKLMKRLKARKVRFSEKV)
- toxic effect ([1]; 24 h of treatment): no toxic effect
- percentage of dead cells positive for DAPI and Annexin V ([1]; after 24 h of treatment): did not increase the percentage of dead cells
- CRT exposure at cell surface ([2]; CT26 cells, agent alone): increase greatly and quickly
- time after treatment at which CRT exposure is detectable [2]: 1 h
- ERP57 exposure at cell surface ([3]; CT26 cells, agent alone): increase greatly and quickly
- time after treatment at which ERP57 exposure is detectable ([3]; intact cells): 1 h

Molecule: O=C1c2c(O)ccc(O)c2C(=O)c2c(NCCNCCO)ccc(NCCNCCO)c21 [mitoxantrone]
- immunogenicity of cell death (protection against tumor growth on rechallenge) ([4]; CT26 cells treated in vitro with agent alone, immunocompetent BALB/c mice): elicited immunogenic cell death
- ERP57 exposure on panel of tumor cell lines [5]: induced
- time to CRT exposure in enucleated cells ([2]; cytoplasts): ≤ 1 h
- time after treatment at which CRT exposure is detectable [2]: 1 h
- CRT exposure on panel of tumor cell lines ([2]; murine MCA205, B16F10, J558, human HeLa, A549, HCT116): induced
- therapeutic effect of single intratumoral injection [6, 11]: permanent regression in some but not all cases
- therapeutic effect of single intratumoral injection ([6]; immunodeficient nu/nu mice): no cure
- time after treatment at which tumor cells are phagocytosed by DC ([7]; before apoptotic changes): within a few hours after treatment
- uptake of treated cytoplasts by DC ([7]; enucleated cells (cytoplasts)): as efficiently as intact cells
- time to ERP57 exposure in enucleated cells ([3]; cytoplasts): ≤ 1 h

B1: rCRT: recombinant CRT (calreticulin) protein, which binds to the surface of the cells (protein)
chain: DPAIYFKEQFLDGDAWTNRWVESKHKSDFGKFVLSSGKFYGDLEKDKGLQTSQDARFYALSAKFEPFSNKGQTLVVQFTVKHEQNIDCGGGYVKLFPSGLDQKDMHGDSEYNIMFGPDICGPGTKKVHVIFNYKGKNVLINKDIRCKDDEFTHLYTLIVRPDNTYEVKIDNSQVESGSLEDDWDFLPPKKIKDPDAAKPEDWDERAKIDDPTDSKPEDWDKPEHIPDPDAKKPEDWDEEMDGEWEPPVIQNPEYKGEWKPRQIDNPDYKGTWIHPEIDNPEYSPDANIYAYDSFAVLGLDLWQVKSGTIFDNFLITNDEAYAEEFGNETWGVTKAAEKQMKDKQDEEQRLKEEEEDKKRKEEEEAEDKEDDDDRDEDEDEEDEKEEDEEESPGQAKDEL
- anti-tumor immune response to etoposide-treated cells coated with protein ([4]; etoposide-treated cells): elicited a vigorous anti-tumor immune response
- anti-cancer immune response, protein absorbed to cells without prior cell death inducer ([4]; live cells, no cell death inducer): failed to elicit an anti-cancer immune response
- restoration of immunogenicity defect by recombinant protein, anti-tumor vaccination [4]: this defect was restored; also recorded: restores the protection against tumors
- sperm-egg fusion, recombinant protein absorbed to sperm without prior capacitation ([8]; non-capacitated sperm): restores very efficiently the fusion
- reversal of siRNA-induced defect at the level of CRT expression [2]: could reverse the defect
- therapeutic effect of single intratumoral injection [6, 11]: no major therapeutic effect
- therapeutic effect of single intratumoral injection ([6]; immunodeficient nu/nu mice): no major therapeutic effect
- effect of injection into a distant site on antitumoral effects of intratumorally injected etoposide ([6]; contralateral subcutaneous injection): did not ameliorate the antitumoral effects
- therapeutic effect of intratumoral injection combined with etoposide or mitomycin C ([6]; immunocompetent animals): able to cause tumor regression
- therapeutic effect of intratumoral injection combined with etoposide or mitomycin C ([6]; immunodeficient (athymic) animals): not in immunodeficient
- reversal of siRNA-induced defect at the level of phagocytosis by DC [7]: could reverse the defect; also recorded: restores phagocytosis
- immunogenicity of mitomycin C-treated cells with protein absorbed to plasma membrane ([9]; mitomycin C-treated cells): greatly enhanced the immunogenicity
- restoration of immunogenicity defect by recombinant protein, interferon-γ production [9]: this defect was restored
- DC maturation ex vivo [10]: could not promote DC maturation

B2: rERP57: recombinant ERP57 protein (protein)
chain: SDVLELTDENFESRVSDTGSAGLMLVEFFAPWCGHCKRLAPEYEAAATRLKGIVPLAKVDCTANTNTCNKYGVSGYPTLKIFRDGEEAGAYDGPRTADGIVSHLKKQAGPASVPLRTEEEFKKFISDKDASVVGFFRDLFSDGHSEFLKAASNLRDNYRFAHTNIESLVKEYDDNGEGITIFRPLHLANKFEDKTVAYTEKKMTSGKIKKFIQDSIFGLCPHMTEDNKDLIQGKDLLTAYYDVDYEKNAKGSNYWRNRVMMVAKKFLDAGHKLNFAVASRKTFSHELSDFGLESTTGEVPVVAIRTAKGEKFVMQEEFSRDGKALEQFLQEYFDGNLKRYLKSEPIPESNEGPVKVVVAENFDDIVNEEDKDVLIEFYAPWCGHCKNLEPKYKELGEKLSKDPNIVIAKMDATANDVPSPYEVKGFPTIYFSPANKKLTPKKYEGGRELNDFISYLQREATNPPIIQEEKPKKKKKAQEDL
- restoration of immunogenicity defect by recombinant protein, anti-tumor vaccination [4]: not restored
- restoration of immunogenicity defect by recombinant protein, anti-tumor vaccination ([4]; listed as recombinant ERP57): did not restore the protection against tumors
- fertilization rate and index ([8]; non-capacitated sperm with recombinant protein): no significant effect
- reversal of siRNA-induced defect at the level of CRT expression [2]: did not reverse the defect
- reversal of siRNA-induced defect at the level of phagocytosis by DC [7]: did not reverse the defect
- restoration of immunogenicity defect by recombinant protein, interferon-γ production [9]: not restored
- restoration of immunogenicity defect by recombinant protein, interferon-γ production ([9]; listed as recombinant ERP57): did not restore
- DC maturation ex vivo [10]: could not promote DC maturation
